The target of the test is Arabidopsis thaliana plant cysteine oxidase 5 (Arabidopsis thaliana) (UniProt Q9LXT4).
UniProt Q9LXT4, sequence (Q9LXT4 whole entry): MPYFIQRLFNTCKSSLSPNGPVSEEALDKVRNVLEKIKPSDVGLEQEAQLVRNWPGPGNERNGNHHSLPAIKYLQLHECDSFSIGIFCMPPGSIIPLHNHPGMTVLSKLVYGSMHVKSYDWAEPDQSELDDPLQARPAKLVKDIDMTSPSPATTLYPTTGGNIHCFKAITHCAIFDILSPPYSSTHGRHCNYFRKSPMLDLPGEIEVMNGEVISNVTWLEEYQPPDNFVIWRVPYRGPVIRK

On to “AtRAP2(2–15), 14-amino acid peptide corresponding to the methionine excised N terminus of AtRAP2.2 and AtRAP2.12”, for which the Km for AtRAP2(2–15); initial rates of N-terminal cysteine oxidation by LC-MS, Michaelis–Menten fit with substrate inhibition, atmospheric O2, pH 8.0, 25 °C was found to be 0.16 mM.

For the origin of these results see paper PMC6066304.
